B1: Probable early E4 11 kDa protein (Human adenovirus C serotype 5 (HAdV-5)), P04489 (parent)
chain: MIRCLRLKVEGALEQIFTMAGLNIRDLLRDILRRWRDENYLGMVEGAGMFIEEIHPEGFSLYVHLDVRAVCLLEAIVQHLTNAIICSLAVEFDHATGGERVHLIDLHFEVLDNLLE

Variants of: B1
Conditions: with PML
L103A was tested, and the “effect of a mutation on the interaction” value was “disrupting interaction”.

Variants of: B1
Conditions: with PML
Remark: another data set of the same source
For C4A, the “effect of a mutation on the interaction” value was “decreasing interaction”. For E74A, the “effect of a mutation on the interaction” value was “decreasing interaction”. With E10A the “effect of a mutation on the interaction” value was “decreasing interaction”. In the case of N82A, the “effect of a mutation on the interaction” value is reported as “disrupting interaction”.

Source: IntAct's records for PubMed 16501113
